# Test results as given in patent US5998154.
# “And” between values parts separate entries of the source, which are not always exact repeats. Equal entries are not always repeated. Where two headings read alike, the source gives them in different places.
# Assays:
# [1] = target: rat sst2A receptor (expressed in stably transfected CHO-K1 cells, CHO-R2 / CHO-R2A) (rat) (UniProt P30680); test: PEG precipitation of solubilised radioligand-receptor complex from CHO-R2 cells
# [2] = target: rat sst2A receptor (expressed in stably transfected CHO-K1 cells, CHO-R2 / CHO-R2A) (rat) (UniProt P30680); test: as above; remark: listed apart in the source
# [3] = target: sst4 receptor (expressed in stably transfected CHO-K1 cells, CHO-R4); test: PEG precipitation of solubilised radioligand-receptor complex from CHO-R4 cells
# [4] = target: sst4 receptor (expressed in stably transfected CHO-K1 cells, CHO-R4); test: as above; remark: listed apart in the source
# [5] = target: sst3 receptor (expressed in stably transfected CHO-K1 cells, CHO-R3); test: PEG precipitation of solubilised radioligand-receptor complex from CHO-R3 cells
# [6] = target: rat sst1 receptor (expressed in stably transfected CHO-K1 cells, CHO-R1) (rat) (UniProt P28646); test: PEG precipitation of solubilised radioligand-receptor complex from CHO-R1 cells
# [7] = target: rat sst1 receptor (expressed in stably transfected CHO-K1 cells, CHO-R1) (rat) (UniProt P28646); test: as above; remark: listed apart in the source
# [8] = target: rat sst2A receptor (expressed in stably transfected CHO-K1 cells, CHO-R2 / CHO-R2A) (rat) (UniProt P30680); test: dissociation from the receptor complex immunoprecipitated with R2-88 from GH4C1 cells, no guanine nucleotide
# [9] = target: sst4 receptor (expressed in stably transfected CHO-K1 cells, CHO-R4); test: PEG precipitation of solubilised radioligand-receptor complex from CHO-R4 cells; remark: listed apart in the source
# [10] = target: rat sst2A receptor (expressed in stably transfected CHO-K1 cells, CHO-R2 / CHO-R2A) (rat) (UniProt P30680); test: PEG precipitation of solubilised radioligand-receptor complex from CHO-R2 cells; remark: listed apart in the source
# [11] = target: rat sst1 receptor (expressed in stably transfected CHO-K1 cells, CHO-R1) (rat) (UniProt P28646); test: PEG precipitation of solubilised radioligand-receptor complex from CHO-R1 cells; remark: listed apart in the source
# [12] = target: rat sst1 receptor (expressed in stably transfected CHO-K1 cells, CHO-R1) (rat) (UniProt P28646); test: as above; remark: listed apart in the source
# [13] = target: rat sst1 receptor (expressed in stably transfected CHO-K1 cells, CHO-R1) (rat) (UniProt P28646); test: dissociation from the receptor complex immunoprecipitated with R1-201 from CHO-R1 cells, no guanine nucleotide
# [14] = target: rat sst1 receptor (expressed in stably transfected CHO-K1 cells, CHO-R1) (rat) (UniProt P28646); test: PEG precipitation of solubilised radioligand-receptor complex from CHO-R1 cells; remark: listed apart in the source
substance,measurement,setting,value
[125I-Tyr11]SRIF (peptide),"Precipitated Complex (cpm), PEG",[1],16200 cpm
same,"Precipitated Complex (cpm), PEG",[2],8840 cpm and 6330 cpm
same,"Precipitated Complex (cpm), PEG",[3],12500 cpm
same,"Precipitated Complex (cpm), PEG",[4],10000 cpm
same,"Precipitated Complex (cpm), PEG",[5],683 cpm
same,"Precipitated Complex (cpm), PEG",[6],8350 cpm
same,"Precipitated Complex (cpm), PEG",[7],7100 cpm
same,percent of specifically bound ligand dissociated,[8],12%
same,"Precipitated Complex (cpm), PEG",[9],4980 cpm and 10000 cpm
same,"Precipitated Complex (cpm), PEG",[10],8490 cpm
same,"Precipitated Complex (cpm), PEG",[11],7060 cpm
same,"Precipitated Complex (cpm), PEG",[12],706 cpm
same,percent of specifically bound ligand dissociated,[13],53%
same,"Precipitated Complex (cpm), PEG",[14],15100 cpm
